# Laboratory results from paper PMC4793217.
# B1: anti-IMP (P054) synthetic Fab (Fab, V domains shown)
# VH: EVQLVESGGGLVQPGGSLRLSCAASGFNLSYSYIHWVRQAPGKGLEWVASIYSYYSYTYYADSVKGRFTISADTSKNTAYLQMNSLRAEDTAVYYCARWWVVYGMDYWGQGTLVTVSS
# VL: DIQMTQSPSSLSASVGDRVTITCRASQSVSSAVAWYQQKPGKAPKLLIYSASSLYSGVPSRFSGSRSGTDFTLTISSLQPEDFATYYCQQHWWLITFGQGTKVEIK
# B2: anti-ME31B (P012) synthetic Fab (Fab, V domains shown)
# VH: EVQLVESGGGLVQPGGSLRLSCAASGFNLSYSSIHWVRQAPGKGLEWVASIYSYYGYTYYADSVKGRFTISADTSKNTAYLQMNSLRAEDTAVYYCARWYWYGWALDYWGQGTLVTVSS
# VL: DIQMTQSPSSLSASVGDRVTITCRASQSVSSAVAWYQQKPGKAPKLLIYSASSLYSGVPSRFSGSRSGTDFTLTISSLQPEDFATYYCQQGPYPYYGLITFGQGTKVEIK
# Tests used:
# [1] = biological target: IMP, endogenous (D. melanogaster (endogenous in embryos)); assay: co-IP
# [2] = biological target: T1, ME31B, endogenous (D. melanogaster (endogenous in embryos)) (UniProt P23128); assay: co-IP
# T1 sequence: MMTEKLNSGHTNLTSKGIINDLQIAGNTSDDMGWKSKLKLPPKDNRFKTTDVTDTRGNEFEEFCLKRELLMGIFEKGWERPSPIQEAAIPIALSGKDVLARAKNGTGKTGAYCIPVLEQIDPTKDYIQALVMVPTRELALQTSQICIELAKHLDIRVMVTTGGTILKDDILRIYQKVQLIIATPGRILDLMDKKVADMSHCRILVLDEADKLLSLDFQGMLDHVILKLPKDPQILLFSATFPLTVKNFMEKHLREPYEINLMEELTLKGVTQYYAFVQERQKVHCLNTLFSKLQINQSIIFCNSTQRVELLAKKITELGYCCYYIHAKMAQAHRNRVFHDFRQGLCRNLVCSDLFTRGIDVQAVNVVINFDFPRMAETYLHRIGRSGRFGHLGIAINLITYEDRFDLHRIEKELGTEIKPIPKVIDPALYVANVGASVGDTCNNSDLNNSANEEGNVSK
Binder,percent of IP input precipitated [1],percent of IP input precipitated [2]
B1,1 to 10%,–
B2,–,< 1%
